Test system: MS2 coat protein
Assay: apparent KD of MS2 coat protein; designed switch direction (-1 OFF switch, 1 ON switch): -1; higher = weaker reporter binding
Outline: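 Designed RNA switches sharing common flanks were transcribed on Illumina chips by stalled E. coli RNA polymerase. They were titrated with SNAP-549-labelled MS2 coat protein, from 0.7 or 1.5 nM doubling to 3 µM, in Tris-HCl pH 7.5 buffer with KCl, MgCl2, BSA, DTT, tRNA and Tween-20. Titrations ran without input, with 200 uM small-molecule ligand, or with an oligonucleotide input. The apparent KD of each design is the median over its clusters, after curve-fitting of normalised cluster fluorescence.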

[1] = input ligand: microRNA oligo, concentration not stated
[2] = Eterna round: R95, input ligand: microRNA oligo, concentration not stated
[3] = Eterna round: R95, input ligand: FMN 200 uM
[4] = Eterna round: R95, input ligand: none

| Sequence | apparent KD of MS2 coat protein (input ligand: FMN 200 uM) [µM] | apparent KD of MS2 coat protein (input ligand: none) [µM] | apparent KD of MS2 coat protein [1] [µM] | apparent KD of MS2 coat protein [2] [µM] | apparent KD of MS2 coat protein [3] [µM] | apparent KD of MS2 coat protein [4] [µM] |
| --- | --- | --- | --- | --- | --- | --- |
| UAAUGUAUAUAGGAUAUCUAGCUGGAAACAGCUAGAGAAGGAUGUACAUGAGGAUCACCCAUGUAAAUCAAUAG [Ex6/9-A2] (Eterna round: R97, puzzle: Exclusion 6) | 0.0483 | 0.0218 | – | – | – | – |
| AAGUAUCAUGUAGGAUAUGCUAACCGAACGUUAGCAGAAGGACAUGAGGAUCACCCAUGUUCUCAUCUGUAAGAACAGAUGUCU [Ex NG1 #6] (Eterna round: R96, puzzle: Exclusion NG 1) | 0.0279 | 0.0155 | 0.0126 | – | – | – |
| UAAAAGCUAGGAUAUACAUGAGGAUCACCCAUGUAAUCUCUCACUUACACGGAGGAUCGUAGAAGGAGCACAAA [Inlaveti] (puzzle: Exclusion 3) | – | – | – | 0.0203 | – | – |
| GGUUGGCGAGGAUAUACAUGAGGAUCACCCAUGUGAGAGAAAAAAGUGAGGAAGAACAGUAGAAGGCGCUGACG [salish99_ex3_r3_036] (puzzle: Exclusion 3) | – | – | – | 0.0742 | 0.162 | 0.106 |
| ACUUAUUGAGGAUAUACAUUAAAAUACAUGAGGAUCACCCAUGUUCUUCAAUGUAUAUAUGUAGAAGGCAGAAGAA [JL-ex5-4.29 Malcolm mod] (Eterna round: R97, puzzle: Exclusion 5) | 0.0576 | 0.0222 | – | – | – | – |
| GAAGAGACAGGAUAUACAUGAGGAUCACCCAUGUGAGGAGGAAGAGAGAGGAGAAGGAGUAGAAGGGUCAGAGG [JR_Exclu3_Sub028] (puzzle: Exclusion 3) | – | – | – | 0.0412 | 0.0321 | 0.0465 |
| ACCCUGUGAGGAUAUUGUGAGCAGACACUUGAGUGCAAUCAUAAGAAGGUACAUGAGGAUCACCCAUGUGAAAC [Eternabot (L1) Solution 90] (Eterna round: R97, puzzle: Exclusion 4) | 0.0304 | 0.0387 | – | – | – | – |
| CUGCUGGAGCGUCGCUUUGGUCGUACAUGAGGAUCACCCAUGUAGGAUAUGGUAAAAUUCGCCUGCUAGAAGGAUAGAGUGGUC [salish99_ExNG3_r04_618] (Eterna round: R96, puzzle: Exclusion NG 3) | 0.142 | 0.0789 | 0.0936 | – | – | – |
| UGCGCUUAAGGAUAUACUUCGGUGCGCCGAGAGUACGGCUAACUUGAGGAUCACCCAAGUAGAAGGUAAGAAAC [Esleberibe] (Eterna round: R97, puzzle: Exclusion 2) | 0.042 | 1.27 | – | – | – | – |
| GCGCCAUCGUGAGAUGGCGUAAAUACAUGAGGAUCACCCAUGUAGGAUAUCGAUUGCUUUGCAGUCGAGAAGGGCAAGGUAUUU [JL ENG3 3.90] (Eterna round: R96, puzzle: Exclusion NG 3) | 0.0284 | 0.0249 | 0.0181 | – | – | – |
| CUUUUGUGAGGAUAUUUGUAGUAAAUAAAUAAAAUUACUACUGAGAAGGCACAUGAGGAUCACCCAUGUUCCUC [salish99_ex4_r3_042] (puzzle: Exclusion 4) | – | – | – | 0.0277 | – | – |
| GAUAGAGAGCAGGAUAUCUUGGAUAAGUAUUGUAGAGAAGGGCUCACAUGAGGAUCACCCAUGUGGUCCUAGAU [JL Dibiri mod 10] (puzzle: Exclusion 6) | – | – | – | 0.0148 | – | – |
| GUUGCGUUUGUGAGGAUAUGCUGUUCCUUGGUUCGGCAGAAGGCACAUGAGGAUCACCCAUGUGGUGUCGUUCC [salish99_Bmod_ex4_053] (puzzle: Brourd's mod of Exclusion 4) | – | – | – | 0.0146 | – | – |
| GGUCAGACGGUAGGAUAUUCAUAUCGAGUGACCCUUUCAUAACAUGAGGAUCACCCAUGUCGGUGGGAGAAGGGCCGUACGGCG [salish99_ExNG02_R04_008] (Eterna round: R96, puzzle: Exclusion NG 2) | 0.041 | 0.0336 | 0.0319 | – | – | – |
| AUGCCCUGAGGAUAUCUCAUCCCGCACAUGAGGAUCACCCAUGUUCUCCUCCGGGCUCCGAGAGAAGGCAGGCCUA [Armus7] (Eterna round: R97, puzzle: Exclusion 5) | 0.0801 | 0.0535 | – | – | – | – |
| CUACUGUGAGGAUAUGGUGAGUAGUGCCUGAGCGCUGCUCACCAGAAGGCACAUGAGGAUCACCCAUGUAUGAC [JL-ex4-2.03 denovo] (puzzle: Exclusion 4) | – | – | – | 0.0435 | – | – |
| AUGGGUACUUUCGGAGCGACAUGAGGAUCACCCAUGUAUGUUGAGGAUAUCCACUGCUAAGGACGGGAGAAGGCAGUGUACUGU [Ex NG3 #83] (Eterna round: R96, puzzle: Exclusion NG 3) | 0.0261 | 0.0264 | 0.016 | – | – | – |
| CGGAUGUGAGGAUAUACAUGAGGAUCACCCAUGUGUGCCAGCUAGAUGACUGGCACUUGUAGAAGGCACGUCUG [Mat - Exclusion 3 - Mod of JL D91] (puzzle: Exclusion 3) | – | – | – | 0.0113 | – | – |

| Sequence | apparent KD of MS2 coat protein (input ligand: FMN 200 uM) [µM] | apparent KD of MS2 coat protein (input ligand: none) [µM] | apparent KD of MS2 coat protein [1] [µM] | apparent KD of MS2 coat protein [2] [µM] | apparent KD of MS2 coat protein [3] [µM] | apparent KD of MS2 coat protein [4] [µM] |
| --- | --- | --- | --- | --- | --- | --- |
| GGUAGUAUGAGUAGUCCUCAUUGAAGAGAUUGGUAAGAUACAUGAGGAUCACCCAUGUUUGAACAAGCUUUUGCUCU [JR_Sv3TOV2_Sub007] (puzzle: Sensor v3, turn-off variant 2) | – | – | – | 0.0259 | 0.0871 | 0.0828 |
| AUAGAUCGAGUUAGGAUAUUGCAGGCCGAGUACAGCAAGAAGGAACAUGAGGAUCACCCAUGUAAACGUGGCUC [Eternabot (L1) Solution 53] (Eterna round: R97, puzzle: Brourd's mod of Exclusion 4) | 0.0259 | 0.0177 | – | – | – | – |
| UUAUAAAGUGUGAGGAUAUGCUGGUCCUUGGAUCAGCAGAAGGCACAUGAGGAUCACCCAUGUAAUAUAUUUUU [JL bmx4 3.08] (puzzle: Brourd's mod of Exclusion 4) | – | – | – | 0.0682 | – | – |
| GUUUGAUGAGGAUAUCGAGGUUAGUACAUGAGGAUCACCCAUGUUAUCCAGGUGUCGGUUCGAGAAGGUAUUGGAC [LRO-Ex5-15] (puzzle: Exclusion 5) | – | – | – | 0.0186 | – | – |
| AAUUAACAAGCAGGAUCCUACAUGAGGAUCACCCAUGUGCUCGUCUUAUAAAGUACUAUCACGAAAGUGAUAGUACA [Mat - Sensor v3 - turn-off var 1 - Eli Mod - D74] (puzzle: Sensor v3, turn-off variant 1) | – | – | – | 0.566 | 0.224 | 0.197 |
| UUAAGUUCAGGAUAUGAUGAAUUAAACAUGAGGAUCACCCAUGUAGAUCCUGAAUUAACAUCAGAAGGGAAUAUUU [JL-ex5-4.52 Brourd mod] (Eterna round: R97, puzzle: Exclusion 5) | 0.0244 | 0.0135 | – | – | – | – |
| GUUAAGGUAGGAUAUACGAUAAUAUAGGGUAGAAUAUUAACACAUGAGGAUCACCCAUGUAGAAGGACCAAUUG [Mat - Exclusion 2 - Mod of my Tesla design - D51] (puzzle: Exclusion 2) | – | – | – | 0.0211 | 0.0387 | 0.0228 |
| AGCCCUGCAGGAUAUGCCCGGGAUAACAUGAGGAUCACCCAUGUGACCGAUUGUUAUCCUGCAGAAGGGCAUGGGA [JL-EX5-4.12 ViennaUCT mod] (Eterna round: R97, puzzle: Exclusion 5) | 0.172 | 0.161 | – | – | – | – |
| CCCGUCGAUGUAGGAUAUGCCCGGGUCUCCCGGGCAGAAGGACAUGAGGAUCACCCAUGUUGAUGAGGAUCACCCAUCAAUGGG [Double but mutated MS2] (Eterna round: R96, puzzle: Exclusion NG 1) | 0.0169 | 0.0207 | 0.0158 | – | – | – |
| UCCUGACAUGAGGAUCACCCAUGUGAGGAUAUGUGGAUCGAGACAACUCUCGGUCCGUGCAGAAGGCACAGGGC [EX1 A.20] (Eterna round: R97, puzzle: Exclusion 1) | 0.0281 | 0.0203 | – | – | – | – |
| UUUAGUUCAGGAUAUGUAGAUUUAAACAUGAGGAUCACCCAUGUAAAUCCUGAUCCUGCUACAGAAGGGAACAUUU [Mat - Exclusion 5 - Eli Mod - D11] (Eterna round: R97, puzzle: Exclusion 5) | 0.0166 | 0.0127 | – | – | – | – |
| UUAUUAUAUGUAGGAUAUGCAUAUUGUUGUUAUGCAGAAGGACAUGAGGAUCACCCAUGUAUAUUGUUGUUGUAUAUUAUAUAU [Title] (Eterna round: R96, puzzle: Exclusion NG 1) | 0.0332 | 0.0233 | 0.0226 | – | – | – |
| GCAAGCUUAAUCAGUAUGAACAUGAGGAUCACCCAUGUAUAAGGUAAUACUUUUGGGCCCUUUAUUACUCGUCUUAU [JR_STOV1_Sub029] (Eterna round: R97, puzzle: Sensor, turn-off variant 1) | 0.0674 | 0.0726 | – | – | – | – |
| GGUUGGCGAGGAUAUACAUGAGGAUCACCCAUGUGAGAGAAUAAAGUGAGAAAGAAAAGUAGAAGGCGCUGACG [Mat - Exclusion 3 - Mod of Salish D49] (puzzle: Exclusion 3) | – | – | – | 0.0569 | 0.728 | 0.0433 |
| CGAUGUGGAGUGAGGAUAUCGUGUUCGAAAGAACGUGAGAAGGCACAUGAGGAUCACCCAUGUGAUCCAUGUCG [Omei Ex4B A8] (Eterna round: R97, puzzle: Brourd's mod of Exclusion 4) | 0.0317 | 0.0264 | – | – | – | – |
| GUGUACAGAGGAUAUACACGAGUAGUUACGAAAGUAACUAUACAUGAGGAUCACCCAUGUAGAAGGCUGUACAC [Dot plot directed v2] (puzzle: Exclusion 2) | – | – | – | 0.0145 | – | – |
| UCUAGCUUUUUGCGUCAAGCAUUGAAGUCUGUGAUCGUAACAUGAGGAUCACCCAUGUAAGUUUUAUGUCGUCUUGU [JR_SV3TOV2_Sub098] (puzzle: Sensor v3, turn-off variant 2) | – | – | – | 0.0414 | 0.0478 | 0.0633 |
